Source: publication PMC10619424

Target: haloalkane dehalogenase DmmarA from Mycobacterium marinum M (Mycobacterium marinum M)
Assay: SAXS; SEC-purified DmmarA at 2, 4.5 and 8.7 mg/ml in 50 mM sodium acetate, 10 mM Tris pH 8.5; scattering curves fitted to the crystallographic monomer and dimer (CRYSOL), ab initio model (DAMMIN)

Substance “haloalkane dehalogenase DmmarA from Mycobacterium marinum M (enzyme)” has a stoichiometry N of 2.
